Assay results: the supplement of paper PMC6379048

Assays:
Assay in all cases: Kd (EC50 corrected by depletion factor)
NONO = biological target: T1, NONO (UniProt Q15233)
T1 sequence: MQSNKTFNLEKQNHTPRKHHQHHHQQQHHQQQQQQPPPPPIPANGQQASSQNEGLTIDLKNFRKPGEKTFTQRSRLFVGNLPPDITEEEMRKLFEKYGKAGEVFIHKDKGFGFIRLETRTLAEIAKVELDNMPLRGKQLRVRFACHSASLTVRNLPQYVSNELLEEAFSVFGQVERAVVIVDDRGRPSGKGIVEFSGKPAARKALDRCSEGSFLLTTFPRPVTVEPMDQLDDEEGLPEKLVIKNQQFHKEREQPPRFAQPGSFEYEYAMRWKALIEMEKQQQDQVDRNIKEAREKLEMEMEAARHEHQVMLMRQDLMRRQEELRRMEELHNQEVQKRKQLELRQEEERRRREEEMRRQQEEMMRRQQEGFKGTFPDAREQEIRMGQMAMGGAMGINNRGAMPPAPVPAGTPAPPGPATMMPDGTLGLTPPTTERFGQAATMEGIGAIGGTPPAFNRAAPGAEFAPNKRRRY
Outline: (§1)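 HEK293-FT lysate (2.5 mg protein/well) was treated with free RNA oligos (0 nM to 30 μM) for 1 h at 4°C, then with the same oligos on NHS-Sepharose beads for 30 min at 4°C. Bound proteins were quantified by label-free LC-MS/MS relative to the control. EC50 came from a four-parameter log-logistic fit, and Kd is EC50 times a protein-dependent depletion factor.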

RPS12 = RPS12 (UniProt P25398)
Outline: as §1

HNRNPK = HNRNPK (UniProt P61978)
Outline: as §1

MRPL13 = MRPL13 (UniProt Q9BYD1)
Outline: as §1

MRPL48 = MRPL48 (UniProt Q96GC5)
Outline: as §1

PCBP1 = PCBP1 (UniProt Q15365)
Outline: as §1

MEX3D = biological target: T2, MEX3D (UniProt Q86XN8)
T2 sequence: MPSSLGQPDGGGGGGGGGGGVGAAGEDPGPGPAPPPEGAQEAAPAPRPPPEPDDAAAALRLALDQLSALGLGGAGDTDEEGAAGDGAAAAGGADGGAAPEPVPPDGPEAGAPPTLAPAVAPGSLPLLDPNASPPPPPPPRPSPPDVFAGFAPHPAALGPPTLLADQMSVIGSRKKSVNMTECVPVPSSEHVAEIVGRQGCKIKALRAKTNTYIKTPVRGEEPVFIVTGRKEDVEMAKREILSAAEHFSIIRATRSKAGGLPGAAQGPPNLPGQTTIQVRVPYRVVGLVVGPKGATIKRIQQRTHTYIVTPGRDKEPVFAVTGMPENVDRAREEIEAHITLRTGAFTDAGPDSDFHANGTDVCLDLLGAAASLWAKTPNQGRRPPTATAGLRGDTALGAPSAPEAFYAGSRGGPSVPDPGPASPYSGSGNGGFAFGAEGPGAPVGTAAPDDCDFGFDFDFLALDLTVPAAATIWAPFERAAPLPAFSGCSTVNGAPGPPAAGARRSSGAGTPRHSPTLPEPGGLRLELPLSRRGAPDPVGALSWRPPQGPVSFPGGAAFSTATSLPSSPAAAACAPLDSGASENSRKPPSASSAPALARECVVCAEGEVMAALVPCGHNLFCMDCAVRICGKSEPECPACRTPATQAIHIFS
Outline: as §1

DHX37 = biological target: T3, DHX37 (UniProt Q8IY37)
T3 sequence: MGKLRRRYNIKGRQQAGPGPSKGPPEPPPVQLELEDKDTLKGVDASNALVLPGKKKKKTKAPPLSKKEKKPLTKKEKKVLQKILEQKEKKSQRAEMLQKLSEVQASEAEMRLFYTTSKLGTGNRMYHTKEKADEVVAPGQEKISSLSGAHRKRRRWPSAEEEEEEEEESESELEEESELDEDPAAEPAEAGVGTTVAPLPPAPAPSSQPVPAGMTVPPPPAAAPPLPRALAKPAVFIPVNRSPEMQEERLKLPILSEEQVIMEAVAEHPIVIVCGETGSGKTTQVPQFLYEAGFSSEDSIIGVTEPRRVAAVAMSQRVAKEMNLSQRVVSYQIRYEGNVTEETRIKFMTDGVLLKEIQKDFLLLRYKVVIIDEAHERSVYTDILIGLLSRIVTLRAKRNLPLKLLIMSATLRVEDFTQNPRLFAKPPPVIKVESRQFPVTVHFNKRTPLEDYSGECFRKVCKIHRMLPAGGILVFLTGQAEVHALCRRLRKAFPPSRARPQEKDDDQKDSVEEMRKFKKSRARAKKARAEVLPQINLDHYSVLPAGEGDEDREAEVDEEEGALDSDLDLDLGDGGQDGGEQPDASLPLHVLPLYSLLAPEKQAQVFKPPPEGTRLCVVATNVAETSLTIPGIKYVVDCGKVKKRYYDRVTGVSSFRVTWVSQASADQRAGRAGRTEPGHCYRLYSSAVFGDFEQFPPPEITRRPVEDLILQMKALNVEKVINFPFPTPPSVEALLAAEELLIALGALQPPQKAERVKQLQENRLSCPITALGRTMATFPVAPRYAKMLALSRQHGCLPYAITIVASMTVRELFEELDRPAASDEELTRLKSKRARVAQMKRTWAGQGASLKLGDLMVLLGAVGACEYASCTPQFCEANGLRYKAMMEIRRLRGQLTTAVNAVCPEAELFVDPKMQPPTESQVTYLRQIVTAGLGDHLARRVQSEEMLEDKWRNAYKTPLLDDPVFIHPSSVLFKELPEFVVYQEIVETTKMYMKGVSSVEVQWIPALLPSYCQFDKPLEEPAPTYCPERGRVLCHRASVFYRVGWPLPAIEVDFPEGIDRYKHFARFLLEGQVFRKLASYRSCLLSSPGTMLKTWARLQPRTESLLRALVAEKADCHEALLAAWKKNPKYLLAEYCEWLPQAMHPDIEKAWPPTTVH
Outline: as §1

Chain of PCBP1 (Q15365 whole entry): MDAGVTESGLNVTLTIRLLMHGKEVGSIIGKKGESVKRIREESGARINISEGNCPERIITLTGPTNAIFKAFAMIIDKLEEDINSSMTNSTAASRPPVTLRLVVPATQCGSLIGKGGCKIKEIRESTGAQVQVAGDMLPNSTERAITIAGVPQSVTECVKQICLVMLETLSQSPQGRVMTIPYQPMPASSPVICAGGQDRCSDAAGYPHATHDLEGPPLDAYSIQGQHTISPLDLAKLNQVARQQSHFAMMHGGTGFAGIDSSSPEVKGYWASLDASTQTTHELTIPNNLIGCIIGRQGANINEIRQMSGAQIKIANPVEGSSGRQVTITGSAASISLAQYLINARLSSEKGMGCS

## AAUAAA
NONO
  Kd: 0.305 nM

## CUGUCCU
RPS12
  Kd: 128 nM
HNRNPK
  Kd: 1630 nM
MRPL13
  Kd: 78.4 nM
MRPL48
  Kd: 96.1 nM
PCBP1
  Kd: 1560 nM

## UAUUUAU
MEX3D
  Kd: 465 nM
DHX37
  Kd: 3370 nM
